Test results reported in patent US20150374698A1.

Target: AVP V1A receptor (mouse) (UniProt Q62463)
Assay: cell-based or functional assay

Chain of AVP V1A receptor (mouse) (Q62463 whole entry): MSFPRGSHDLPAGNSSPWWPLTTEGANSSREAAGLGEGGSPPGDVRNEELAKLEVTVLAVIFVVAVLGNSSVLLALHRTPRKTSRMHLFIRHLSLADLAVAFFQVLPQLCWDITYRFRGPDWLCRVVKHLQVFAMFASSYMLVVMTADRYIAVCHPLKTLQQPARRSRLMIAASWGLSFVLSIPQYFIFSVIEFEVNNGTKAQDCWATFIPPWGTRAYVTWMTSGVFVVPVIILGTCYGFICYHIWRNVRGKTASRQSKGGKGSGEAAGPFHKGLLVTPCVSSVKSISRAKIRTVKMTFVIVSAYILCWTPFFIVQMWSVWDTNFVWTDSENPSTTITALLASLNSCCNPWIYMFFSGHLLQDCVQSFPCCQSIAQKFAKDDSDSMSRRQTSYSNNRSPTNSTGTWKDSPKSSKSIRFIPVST

EC50 of contractile response, 2°-branch mesenteric artery, control mice: 0.57 nM | EC50 of contractile response, 2°-branch mesenteric artery, sRA mice: 15.9 nM | EC50 of contractile response, abdominal aortic rings, control mice: 2.19 nM | EC50 of contractile response, abdominal aortic rings, sRA mice: 3.72 nM | Maximum Response (contraction), 2°-branch mesenteric artery, control mice: 52.5% | Maximum Response (contraction), 2°-branch mesenteric artery, sRA mice: 17.3% | Maximum Response (contraction), abdominal aortic rings, control mice: 0.29 g | Maximum Response (contraction), abdominal aortic rings, sRA mice: 0.12 g
Substance: arginine vasopressin (from UniProt P01185 20-28) (peptide)
